In patent US20240392037A1 (UNIVERSITY OF PITTSBURGH OF THE COMMONWEALTH SYSTEM OF …, published 2024):

Tests used:
[1] = target: T1, human neutrophil elastase (NE) polypeptide (human, UniProt P08246 28-267, limits assumed); experiment: cell-based or functional assay
T1 sequence: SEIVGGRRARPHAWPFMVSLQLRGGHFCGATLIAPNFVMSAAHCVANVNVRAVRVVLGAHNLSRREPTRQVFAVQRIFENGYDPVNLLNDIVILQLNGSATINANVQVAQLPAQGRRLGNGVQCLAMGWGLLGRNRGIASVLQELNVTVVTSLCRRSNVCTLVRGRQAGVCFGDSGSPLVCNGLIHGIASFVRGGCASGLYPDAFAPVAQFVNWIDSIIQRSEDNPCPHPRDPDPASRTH

[2] = target: T1, human neutrophil elastase (NE) …; experiment: ELISA, NE coated at 50 ng/well
Description: (§1) FIG. 12. Specificity of VH/VH-Fc and Fab/IgG1 with recombinant human NE. (A and B) Binding of Fab 1C10 (A) and VH 1D1.43 (B) to rhNE, rhMPO, and PR3 measured by ELISA. (C and D) Binding of IgG1 1C10 (C) and VH-Fc 1D1.43 (D) to rhNE, rhMPO, BSA, and PR3 measured by ELISA. rhNE, rhMPO, BSA, and PR3 were coated in 96-well microplates at 50 ng/well. Experiments were performed in duplicate. Values were reported as the mean±SD.
(§2) The NE polypeptide was coated in 96-well microplates at 50 ng/well in PBS at 4° C. over-night and blocked with 5% milk in PBS for 2 hours at room temperature. For the soluble Fab/VH binding assay, the 3-fold serially diluted Fab/VH were added and incubated for 1 hour at 37° C. and further incubated with anti-FLAG M2-peroxidase (HRP) antibody (A8592, Sigma-Aldrich) for another 1 hour. For the IgG₁ binding assay, HRP conjugated goat anti-human IgG₁ Fc (Sigma-Aldrich) was used for detection. Finally, the reaction was developed by 3,3′,5,5′-tetramethylbenzidine (TMB, Sigma-Aldrich) and stopped by TMB stop buffer (ScyTek laboratories). Absorbance was recorded at 450 nm. The experiment was performed in duplicate.

BSA [3] = target: T2, BSA (UniProt P02769 25-607); experiment: ELISA, BSA coated at 50 ng/well
Description: as §1, §2

Proteinase 3 [4] = target: T3, Proteinase 3 (UniProt P24158 28-248, limits assumed); experiment: ELISA, PR3 coated at 50 ng/well
T3 construct: Specificity control, coated at 50 ng/well in ELISA; also called PR3
T3 sequence (looked up): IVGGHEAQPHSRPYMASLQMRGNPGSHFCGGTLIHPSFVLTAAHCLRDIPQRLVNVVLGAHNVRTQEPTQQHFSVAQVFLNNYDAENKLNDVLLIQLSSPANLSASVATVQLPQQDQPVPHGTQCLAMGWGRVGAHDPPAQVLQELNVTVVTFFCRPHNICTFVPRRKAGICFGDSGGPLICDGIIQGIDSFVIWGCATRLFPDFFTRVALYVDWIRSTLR
Description: as §1, §2

[5] = target: T4, recombinant human myeloperoxidase protein (human, UniProt P05164 49-745, limits assumed); experiment: ELISA, rhMPO coated at 50 ng/well
T4 construct: Specificity control, coated at 50 ng/well in ELISA; also called rhMPO
T4 sequence (looked up): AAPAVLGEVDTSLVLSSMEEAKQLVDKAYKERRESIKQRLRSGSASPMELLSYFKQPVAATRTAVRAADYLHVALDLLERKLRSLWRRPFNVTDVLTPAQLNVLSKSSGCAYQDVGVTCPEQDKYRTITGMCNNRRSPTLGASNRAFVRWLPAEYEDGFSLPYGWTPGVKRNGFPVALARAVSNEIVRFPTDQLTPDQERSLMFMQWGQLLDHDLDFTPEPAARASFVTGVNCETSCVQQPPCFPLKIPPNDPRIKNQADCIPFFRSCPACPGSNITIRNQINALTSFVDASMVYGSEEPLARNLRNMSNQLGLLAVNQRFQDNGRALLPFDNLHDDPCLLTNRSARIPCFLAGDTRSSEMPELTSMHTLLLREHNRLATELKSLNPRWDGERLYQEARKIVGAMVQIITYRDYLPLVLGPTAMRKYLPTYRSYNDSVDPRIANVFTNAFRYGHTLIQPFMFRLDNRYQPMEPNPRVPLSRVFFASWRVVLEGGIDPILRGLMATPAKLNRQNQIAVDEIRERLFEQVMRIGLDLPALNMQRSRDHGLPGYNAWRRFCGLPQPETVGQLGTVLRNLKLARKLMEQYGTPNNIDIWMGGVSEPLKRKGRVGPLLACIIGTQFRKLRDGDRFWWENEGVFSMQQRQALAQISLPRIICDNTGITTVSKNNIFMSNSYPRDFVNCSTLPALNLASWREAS
Description: as §1, §2

[6] = target: T1, human neutrophil elastase (NE) …; experiment: ELISA, NE coated at 50 ng/well, anti-human IgG1 Fc-HRP detection
Description: as §2

[7] = target: T1, human neutrophil elastase (NE) …; experiment: ELISA, NE coated at 50 ng/well, anti-FLAG-HRP detection
Description: as §2

[8] = target: T1, human neutrophil elastase (NE) …; experiment: as above; remark: listed apart in the source
Description: as §1, §2

Proteinase 3 [9] = target: T3, Proteinase 3; experiment: ELISA, PR3 coated at 50 ng/well, anti-FLAG-HRP detection
[10] = target: T4, recombinant human myeloperoxidase …; experiment: ELISA, rhMPO coated at 50 ng/well, anti-FLAG-HRP detection
Proteinase 3 [11] = target: T3, Proteinase 3; experiment: ELISA, PR3 coated at 50 ng/well, anti-FLAG-HRP detection; remark: listed apart in the source
Description: as §1, §2

[12] = target: T1, human neutrophil elastase (NE) …; experiment: BLItz biolayer interferometry, NE-Biotin on streptavidin biosensor
Description: The affinity and avidity of anti-hNE binders were detected by biolayer interferometry BLItz (ForteBio, Menlo Park, CA). Briefly, Dulbecco's PBS (DPBS) was used to establish baseline for 30 seconds, and streptavidin biosensor (ForteBio) was coated with 16.7 μg/mL recombinant NE-Biotin for 2 minutes. […] Antigen coated biosensors with PBS served as reference controls. The dissociation was monitored in DPBS for 4 minutes.

[13] = target: T4, recombinant human myeloperoxidase …; experiment: ELISA, rhMPO coated at 50 ng/well, anti-FLAG-HRP detection; remark: listed apart in the source
Description: as §1, §2

BSA [14] = target: T2, BSA; experiment: ELISA, BSA coated at 50 ng/well, HRP anti-human IgG1 Fc detection
Description: as §1, §2

Proteinase 3 [15] = target: T3, Proteinase 3; experiment: ELISA, PR3 coated at 50 ng/well, HRP anti-human IgG1 Fc detection
[16] = target: T4, recombinant human myeloperoxidase …; experiment: ELISA, rhMPO coated at 50 ng/well, HRP anti-human IgG1 Fc detection

T2 sequence (P02769 25-607 limits assumed): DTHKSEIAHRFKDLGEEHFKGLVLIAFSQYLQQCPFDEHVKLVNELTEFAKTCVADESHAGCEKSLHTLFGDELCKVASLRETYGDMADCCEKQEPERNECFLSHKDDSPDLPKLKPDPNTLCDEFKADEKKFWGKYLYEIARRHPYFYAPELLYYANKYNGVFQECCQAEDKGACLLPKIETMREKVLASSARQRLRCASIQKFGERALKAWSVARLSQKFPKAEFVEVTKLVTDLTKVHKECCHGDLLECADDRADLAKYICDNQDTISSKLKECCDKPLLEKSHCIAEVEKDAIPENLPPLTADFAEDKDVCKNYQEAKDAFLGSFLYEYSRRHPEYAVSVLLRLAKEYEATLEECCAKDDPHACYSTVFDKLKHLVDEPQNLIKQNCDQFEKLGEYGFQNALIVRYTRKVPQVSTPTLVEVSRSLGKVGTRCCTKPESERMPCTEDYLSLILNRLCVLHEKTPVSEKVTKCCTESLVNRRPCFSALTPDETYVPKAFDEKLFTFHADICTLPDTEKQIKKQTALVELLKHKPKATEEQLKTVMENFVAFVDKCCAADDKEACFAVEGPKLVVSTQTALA

B1: VH-Fc 1D1.43 (Fc fusion)
chain: EVQLVESGGGVVQPGRSLRLSCAASGFTFSNYAMHWVRQAPGKGLEWVAVISYDGSNKYYADSVKGRFTISRDDSTNTLYLQMNNLRAEDTAVYYCAKDLPWEWELDYWGQGTLVTVSS
notes: VH 1D1.43 converted to a bivalent antibody by fusion to human IgG1 Fc; also called VH-Fc ID1.43; not shown: human IgG1 Fc
IC50 of inhibition of neutrophil elastase enzyme activity; fold change against the VH form (VH 1D1.43) [1]: 10 fold | EC50 (read off the curve) [2]: ~0.7 nM | binding result (BSA [3]): no binding (tested: about 1,000 nM) | binding result (Proteinase 3 [4]): no binding (tested: about 1,000 nM) | binding result [5]: no binding (tested: about 1,000 nM) | EC50 [6]: 0.66 nM

B2: VH 1D1.43 (other)
VH: B1 chain
notes: Expressed in E. coli, purified on Ni-NTA and detected with anti-FLAG antibody; also called Clone #2; #2 (VH)
EC50 [7]: 4.3 nM | EC50 (read off the curve) [8]: ~10 nM | binding result (Proteinase 3 [9]): no binding (tested: about 30,000 nM) | binding result [10]: no binding (tested: about 30,000 nM)

B3: Fab 1C10 (Fab, V domains shown)
VH: QVQLVESGGGLVKPGGSLRLSCAASGFTFSDYYMSWIRQAPGKGLEWVSYISSSGSTIYYADSVKGRFTISRDNAKNSLYLQMNSLRAEDTAVYYCARVGGDFWSGFLMDVWGQGTTVTVSS
VL: DIQMTQSPSSLSASVGDRVTITCRASQSISSYLNWYQQKPGKAPKLLIYAASSLQSGVPSRFSGSGSGTDFTLTISSLQPEDVAVYYCMQALQTPLTFGQGTKLEIKR
notes: Human Fab from a phage library; also called Clone #1; #1 (Fab)
IC50 of inhibition of neutrophil elastase enzyme activity [1]: ~5000 nM | EC50 [7]: 16.3 nM | EC50 (read off the curve) [8]: ~3 nM | binding result (Proteinase 3 [11]): no binding (tested: about 7,000 nM) | Kd [12]: 8.5 nM | binding result [13]: no binding (tested: about 7,000 nM)

B4: IgG1 1C10 (antibody, V domains shown)
VH: B3 VH
VL: B3 VL
notes: Fab 1C10 converted to a bivalent human IgG1 (heavy and light chains re-cloned into the pcDNA-IgG1 vector, expressed in Expi293 cells); also called IgG 1C10; 1C10 IgG1
IC50 of inhibition of neutrophil elastase enzyme activity [1]: 1800 nM | EC50 [6]: 0.4 nM | Kd [12]: 0.14 nM | binding result (BSA [14]): no binding (tested: about 200 nM) | binding result (Proteinase 3 [15]): no binding (tested: about 200 nM) | binding result [16]: no binding (tested: about 200 nM)
